Measured values from the DeepSol protein solubility set.

Test: soluble on expression in E. coli; label from the status in PepcDB or PDB records

Row | Sequence | soluble on expression in E. coli
1 | MPSDAPIDFTGLIRASDLVVCGQATAEPLTLTEALMAQAADLPPFRLMVGPVFSDTFAAAPPNVSFVSYGVIGHARKLARAGRLDVIPSNYSAFCADFAAGRHRADVVLVQLAEAPDGRLSASLSCDYVIDAARRARLVIAEINPDAPFTYGAEWPGEVPIHIRVAARRKPVELPSGALDDVSRKIAANAAGLIADGATLQFGVGKIPDAILSSLVHARDLGIHSGLINDAVVELIERGVVTNARKGIDPGVTVTNQLIGTQRLYRFAHQNRSVRMQPAAYTHDHGVLGRINRLTAINSALQVGLDGSVNAETLNGVAIGAIGGQLDFVRGANASPGGRALIALPATAPDGSSRIVARVETVTTPRADVDVIVTEWGVAELRGCSLAERARQMIAIAAPEHRDRLAEQARTIALEHHHHHH | not soluble
2 | MGVANDSSPEYRWMSPHRLSDTVILGDCLYFNNIMSQLDLHQNWAPSVRLLNYFKNFNKETLLKIEENDYINSSFFQQKDKRFYPINDDFYHISTGGYGIVFKIDNYVVKFVFEATKLYSPMETTAEFTVPKFLYNNLKGDEKKLIVCAWAMGLNYKLTFLHTLYKRVLHMLLLLIQTMDGQELSLRYSSKVFLKAFNERKDSIKFVKLLSHFYPAVINSNINVINYFNRMFHFFEHEKRTNYEYERGNIIIFPLALYSADKVDTELAIKLGFKSLVQYIKFIFLQMSLLYIKIYELPCCDNFLHADLKPDNILLFDSNEPIIIHLKNKKFVFNERIKSALNDFDFSQVAGIINKKIKNNFKVEHNWYYDFHFFVHTLLKTYPEIEKDIEFSTALEEFIMCTKTDCDKYRLKVSILHPISFLEKFIMRDIFSDWINGGN | not soluble
3 | MSLDGEQTTREPVLKAMFLADTHLLGEFLGHWLDKLRREWQMERAFQTALWLLQPEVVFILGDIFDEGKWSTPEAWADDVERFQKMFRHPSHVQLKVVAGNHDIGFHYEMNTYKVERFEKVFSSERLFSWKGINFVMVNSVALNGDGCGICSETEAELIEVSHRLNCSREARGSSRCGPGPLLPTSAPVLLQHYPLYRRSDANCSGEDAAPAEERDIPFKENYDVLSREASQKLLWWLQPRLVLSGHTHSACEVHHGGRVPELSVPSFSWRNRNNPSFIMGSITPTDYTLSKCYLPREEGHHHHHH | not soluble
4 | MSDNDDDFMCDDDEDYGLEYSEDSNSEPDVDLENQYYNSKALKEEEPKAALASFQKVLDLENGEKGEWGFKALKQMIKINFRLCNYDEMMVRYKQLLTYIKSAVTRNHSEKSINSILDYISTSKNMALLQNFYETTLDALRDAKNDRLWFKTNTKLGKLYFDRSDFTKLQKILKQLHQSCQTDDGEDDLKKGTQLLEIYALEIQMYTVQKNNKKLKALYEQSLHIKSAIPHPLIMGVIRECGGKMHLREGEFEKAHTDFFEAFKNYDESGSPRRTTCLKYLVLANMLMKSGINPFDSQEAKPYKNDPEILAMTNLVNSYQNNDINEFETILRQHRSNIMADQFIREHIEDLLRNIRTQVLIKLIRPYKNIAIPFIANALNIEPAEVESLLVSCILDDTIKGRIDQVNQVLQLDKINSSASRYNALEKWSNQIQSLQFAVVQKMA | soluble
5 | MAHHHHHHMKTFIGHFNNNALFSRNSFTNKSLRARKYTKNILSLKNLIYSSFFLYSTMNKVIGTHSGRFHTDEILATVMLKFLPEYKDAKIIRTRDQTKLDTCDIVVDVGGVYDHENKRYDHHQKEFEGTLDDKHTIRLSSAGLIYKHYGKEVLRKGFSITDEEKINVLYEKLYTSFIESVDALDNGINQYEGQPKYQINTTIQCRVNRFNPTFLEDDVDENERFMEAAKIVKQEFVHFVTYYSDVWYMAKSIVRESILDRFNFHKSGRVIYLQKYCPYTEHLYDLEQELNIQDEILYCIYSDRYNNFRCTAISKKNEPFVLRLPFPASFRGLKDEQLQTVSKIPGLTFVHYSGFTSAGENIESLVKLVEASLKENNIVY | not soluble
6 | MGSDKIHHHHHHMKVVTFGEIMLRLSPPDHKRIFQTDSFDVTYGGAEANVAAFLAQMGLDAYFVTKLPNNPLGDAAAGHLRKFGVKTDYIARGGNRIGIYFLEIGASQRPSKVVYDRAHSAISEAKREDFDWEKILDGARWFHFSGITPPLGKELPLILEDALKVANEKGVTVSCDLNYRARLWTKEEAQKVMIPFMEYVDVLIANEEDIEKVLGISVEGLDLKTGKLNREAYAKIAEEVTRKYNFKTVGITLRESISATVNYWSVMVFENGQPHFSNRYEIHIVDRVGAGDSFAGALIYGSLMGFDSQKKAEFAAAASCLKHTIPGDFVVLSIEEIEKLASGATSGRVER | soluble
7 | MQRFVFGGKLWKFNETFGCYDDYPHVAPFLAVEHFASFPVHPPTFIFSNAAVSNILSMEEIKSVLIRLDELISSNNLHNHPCLISQAGAQATMRLASKDQLRSDWNTSVEIPFCLYVTQNGVCPRQFDYEDLHKQSQWVALFEEVILPLDKMQGSKLSKIAPHQHSSVVKNAIMKSKREKKTSCKKHSKSISGIDSSSSGCNSL | not soluble
8 | MSDVDVFVIDDDFDPLADLSLDDGERDDAEADYLPPIPDADKSVVPPVVPLSATERIEKLLAGIPGQQFRLLHAVEFCTEPKTMDEAVADLDAAYPNTTSVYGSAQVVQLLERDGALERIVDEDAAHAAAGDAADTPAEDEGFISVTPAPPCRYRATQAGLDAVAAHVNEGLVAERISEDERYLPIFQRVLEMCAREGGCPTKELDQAVDGDPLCQEPRRFCGFFRGKLEETGAIEWRDAWTITDLGRSVLASGLFAAASPSER | not soluble
9 | MSLGGELSLQIINKNPYKLYMDIKGFGFKTVDSIALSMGIEPDSNFRTKAAILYCLEQKEQNGDTYAFIEDIHQQVEKLLNIKINDIKNYLDKEYYYFDVLRLAKRTTWETEKDISVRLKEKINNSQKLFTNNVIHLIPEIERILRIKYDDKQKELFYKINENNILVLTGFAGTGKSSVLNGLLNLFDKKNITYKLMSPTAKAAKRMEECTGKKASTIHRALGLAEGKFLVNEKNPFAEDVIIIDETSMVDIYLFLAVLKGIKNTTKLLCLGDYGQLESISAGNVLFDMIQGGIPCVKLEKIFRQKEDSSLLNVITNIRNGDNPLKNTHKTYLELGRDCKFWLGKKEQTLSRVLLCYKECLKHFSREDIMVLCPMKKGNSGVNKLNQELQKIANSQNTEELKLKDCAYKKEDLVMHIKNDYNANIFSEDCKDTIAKGIFNGDAGKIEKIDLENQKLYVSYDSGIVEYDNSNLNELMLSYALTIHKVQGSQSKVVIVALDMSHYKMLKRSLLYTAASRCVELLIFICDPKAFSIALNNNQVTHKNTFLGELLKISEGHHHHHH | soluble
10 | STQTSRVTLVGEMLPAYNEILTPEALSFLKELHENFNERRIELLQKRMKKQQKIDAGEFPKFLEETKRIREADWTIAKLPKDLEDRRVEITGPVDRKMVINALNSGAHLFMADFEDSNSPTWENAIEGQINLRDAVKGTISHKNENGKEYRLNSKTAVLIVRPRGWHLEEKHMQVDGKNMSGSLVDFGLYFFHNAKALLEKGSGPYFYLPKMESYLEARLWNDVFVFAQKYIGIPNGTIKATVLLETIHASFEMDEILYELKDHSAGLNCGRWDYIFSFLKAFRNHNEFLLPDRAQVTMTAPFMRAYSLKVIQTCHRRNAPAIGGMAAQIPIKNNPEANEAAFEKVRADKEREALDGHDGTWVAHPGLVPVAMEVFNHIMKTPNQIFRKREEIHVTEKDLLEVPVGTITEEGLRMNISVGIQYIASWLSGRGAAPIYNLMEDAATAEISRAQVWQWIRHEGGKLNDGRNITLELMEELKEEELAKIEREIGKEAFKKGRFQEATTLFTNLVRNDEFVPFLTLPGYEIL | soluble
11 | MGSDKIHHHHHHAPPTFPEVKKIHAHRLSDELLISYPLDMAVSEDYIFILALADNAWLQVYDKTTGQLLGSFVTRGQGPGEATTANMCYYNAREKKISVYDESSMKLLTYRFDKDADNWGALIEERSFYDLGGTVRRVWELRNGRFLVDGQLGTKSDQQKRFQMLADAKVVADYNDFPIDTPKERSVWSSPAIAISPDCKKMAVGTLYGGILELFDLSQNIELRAIRKFYPPVVQYLSGTIQNTEETVWGFSALCVTDERIYSVFIGDKNPNLFNNLSVFDWDGRELIKYNTDCLVLRICASTQEPNKLYGIAFSETHEFYLVSFSLGS | not soluble
12 | MDASIEKRPRTRLSPQKRKLQLMEIALEVFAKRGIGRGGHADIAEIAQVSVATVFNYFPTREDLVDDVLNFVVRQYSNFLTDHIDLDLDVKTNLQTLCKEMVKLAMTDCHWLKVWFEWSASTRDEVWPLFVSTNRTNQLLIRNMFMKAMERGELCEKHDVDNMASLFHGIFYSIFLQVNRLGEQEAVYKLADSYLNMLCIYKN | soluble
13 | TKDFSWNSDFIFSHAKNEVTDLRGRTRMMELVSGNGFAREGYPVRGLFSIPFAGLDEKGIPMFDINGNITSTDINFQEREKLDYLKYEGPTDPTITGSFGNVFAYKGFKLNVFMTYSFGNVVRLNPYFNYKYSDLSAMPREFKNRWTLSGDEAKTNIPAILSNPQYEANRTLYKAYNAYNYSTERIAKGDFIRMKEISLSYEFPKSWISAAKISNLSLKLQATNLFLIYADKKLNGQDPEFFNTGGVASPVPRQFTLTLRLGL | not soluble
14 | MNKSRVVVGMSGGVDSSVAALLLKQQGYDVTGLFMKNWEEDDTDEYCSSRQDFLDAASVADILDIPLEVVNFSTEYRERVFNLFLKEYQAGRTPNPDVLCNSEIKFRAFLDHALNLGADWIATGHYAQVHETDGLFQLLKGEDGNKDQSYFLYRLNQQQLSHTIFPIGHLYKREVRKIAREHRLPNSTKKDSTGICFIGERPFREFLNRYLPANPGEIHTLDDQVVGEHLGVMYYTIGQRQGLGIGGTRQGSEQPWFVSGKDIKKNVLYVVQGHDHPALLRSSLTAADLSWISGTPPHQNWVYAAKIRYRQTDAPCAITHFEHDSCQIGFAAPQWGITPGQSVVVYESKVCLGGGVIIGSNDLEHHHHHH | not soluble
15 | SKDCIIQRYKDGDVNNIYTANRNEEITIEEYKVFVNEACHPYPVILPDRSVLSGDFTSAYADDDESC | soluble
16 | MGSDKIHHHHHHMEKKFNLENYLSYGVQNIVKGIIKSTLSNPKESLFMAKYSIASKNAIKLRAEADKIGEHVPPFLIASITSKCNLHCKGCYARHVNSCTDEKTVNQLTDEDWRRVFYEAKDIGVGFILLLGGEPLMRPNVIKIAGEIEDILFPIFTNGTMIDEKYIKLFQKYRNLIPIFSIEGNESNTDKRRGTGIYSEIIKKMNEAYENKIIYGASITVTKENIEEVTSEKFLDKLYSRGCKSVIYVEYVPVSEKEKKIALEGKEREFLKDKLVELRYKYEDILFISFPGDEKSSGGCLAAGRGFFHINFNGGVEPCPFSPYSDTNLKDLSLKEAMNSPLFRKLRKDNVLMEEHSGGCVLFEKEDIVQSLLQK | not soluble
17 | SNAEMSYELAQHGRSTLPRELAVYALEGPFFFAAAETFERVMGSIQETPQILILRLKWVPFMDITGIQTLEEMIQSFHKRGIKVLISGANSRVSQKLVKAGIVKLVGEQNVYPVFEGALSAALTEIEAQP | soluble
18 | MITSTNKEAYPNTLIVILGHDEGRSSFEEKEDVTRVTNDKGETIGFNFFNVDKLIDFDKLPNGPVKLSDDELEALNKKLAEVGFDDKLEYGKPTLVYGYVKTCEKHPDSDHLHVTTIEVGDGEEHQIVCGAPNIAQGQKVVVALPGTLMPNGAQIWPGKLRGVDSYGMICSARELGLPHAPQKRGIMVVPDSFEVGAEFEPTKCDELIASGEITLLEHHHHHH | soluble
19 | MAHHHHHHMGKNETDTDVLTSNVEVGSVLSQCAESRVHECNFYGYRAVCKHRFPKAYRHPALDQRLREQRTVREGRALARCLKNGVLAPTVFAVDRERCAIVMERIDGLTVREIFNHEQGNVAQGKTDVSFLVSFLLRGMGEVVGLLHNADIIHGDLTTSNFMCKRNFLERRLSTENLASNTSSRDSIVVLDFGLVMDKNSAEERAVDLYVLERALKSSHPFLEHVATRLVLEGYHRTVDPQKGSVTMARLEAVRARGRKRSMIG | not soluble
